Starred links: 1 amine or outer side, 2 acyl side, 3 side chain; linkers in the order of their positions; H or OH if unused. Positions of bridges follow the written chain, without caps; N, C: chain ends. Non-standard residues stand in square brackets, D forms with d. Groups on a side chain read outwards from the residue. *: point of attachment. Glu(OMe) = COC(=O)CC[C@H](N[*:1])C(=O)[*:2]; C18 diacid = O=C(O)CCCCCCCCCCCCCCCCC(=O)*; Dip = N[C@H](C(=O)O)C(c1ccccc1)c1ccccc1; Palmitoyl = CCCCCCCCCCCCCCCC(=O)*; β3hF = N[C@H](CC(=O)O)Cc1ccccc1; Cha = N[C@@H](CC1CCCCC1)C(=O)O; Tle = CC(C)(C)[C@H](N)C(=O)O; hLeu = CC(C)CC[C@H](N)C(=O)O; Isovaleryl = CC(C)CC(=O)*; Ac6c = NC1(C(=O)O)CCCCC1; Dap = NC[C@H](N)C(=O)O; AEEA = NCCOCCOCC(=O)O; Ahx = NCCCCCC(=O)O
T1: human ferroportin (SLC40A1) fused in frame with GFP, stably expressed in HEK293 cells (human, UniProt Q9NP59 1-571)
T1 sequence (looked up): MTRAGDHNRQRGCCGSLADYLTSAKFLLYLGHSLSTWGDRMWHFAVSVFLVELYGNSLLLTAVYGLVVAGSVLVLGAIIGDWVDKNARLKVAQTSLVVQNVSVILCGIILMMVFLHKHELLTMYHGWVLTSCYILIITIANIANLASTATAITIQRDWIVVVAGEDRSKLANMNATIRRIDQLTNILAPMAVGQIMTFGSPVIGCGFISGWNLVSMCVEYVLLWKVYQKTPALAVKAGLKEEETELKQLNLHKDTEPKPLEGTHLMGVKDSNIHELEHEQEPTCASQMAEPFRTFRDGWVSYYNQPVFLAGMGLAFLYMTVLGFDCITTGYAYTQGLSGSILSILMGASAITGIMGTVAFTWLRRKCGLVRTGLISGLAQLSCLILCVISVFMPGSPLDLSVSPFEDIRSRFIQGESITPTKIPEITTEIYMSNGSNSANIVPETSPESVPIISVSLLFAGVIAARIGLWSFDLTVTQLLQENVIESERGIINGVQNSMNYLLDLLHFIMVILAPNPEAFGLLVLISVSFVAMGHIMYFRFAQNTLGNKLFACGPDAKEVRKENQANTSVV

B1: Seq. No. 476 (peptide)
peptide: XETHXPCIXXXXC
modifications: [Isovaleric Acid]-E-T-H-[Dpa]-P-C-I-[Lys(Ac)]-[bhPhe]-[Lys(Ahx_Palm)]-[(D)Arg]-C-NH2
B2: Seq. No. 477 (peptide)
peptide: XETYXPCIXXXC
modifications: [Isovaleric Acid]-E-T-Y-[Dpa]-P-C-I-[Lys(1PEG2_1PEG2_Dap_C18_Diacid)]-[bhPhe]-[(D)Lys]-C-NH2
B3: Seq. No. 479 (peptide)
peptide: XETXXPCIXXXC
modifications: [Isovaleric Acid]-E-T-[3Quin]-[Dpa]-P-C-I-[Lys(1PEG2_1PEG2_Dap_C18_Diacid)]-[bhPhe]-[(D)Lys]-C-NH2
B4: Seq. No. 494 (peptide)
peptide: XXTHXPXIXXXXC
modifications: [Isovaleric Acid]-[Glu(OMe)]-T-H-[Dpa]-P-[(D)Cys]-I-[(D)Lys]-[bhPhe]-[Lys(PEG2_1PEG2_DMG_N_2ae_C18_Diacid)]-[(D)Lys]-C-NH2
B5: Seq. No. 495 (peptide)
peptide: XXTHXPXIXXXC
modifications: [Isovaleric Acid]-[Glu(OMe)]-T-H-[Dpa]-P-[(D)Cys]-I-[Lys(PEG2_1PEG2_DMG_N_2ae_C18_Diacid)]-[bhPhe]-[(D)Lys]-C-NH2
B6: Seq. No. 496 (peptide)
peptide: XXTXXPCIXXXC
modifications: [Isovaleric Acid]-[Glu(OMe)]-T-[4Pal]-[Dpa]-P-C-I-[Lys(1PEG2_1PEG2_Ahx_C18_Diacid)]-[bhPhe]-[(D)Lys]-C-NH2
B7: Seq. No. 497 (peptide)
peptide: XXTYXPCIXXXC
modifications: [Isovaleric Acid]-[Glu(OMe)]-T-Y-[Dpa]-P-C-I-[Lys(1PEG2_1PEG2_Ahx_C18_Diacid)]-[bhPhe]-[(D)Lys]-C-NH2
B8: Seq. No. 498 (peptide)
peptide: XXTWXPCIXXXC
modifications: [sovaleric Acid]-[Glu(OMe)]-T-W-[Dpa]-P-C-I-[Lys(1PEG2_1PEG2_Ahx_C18_Diacid)]-[bhPhe]-[(D)Lys]-C-NH2
B9: Seq. No. 499 (peptide)
peptide: XXTXXPCIXXXC
modifications: [Isovaleric Acid]-[Glu(OMe)]-T-[4Pal]-[Dpa]-P-C-I-[Lys(1PEG2_1PEG2_Dap_C18_Diacid)]-[bhPhe]-[(D)Lys]-C-NH2
B10: Seq. No. 503 (peptide)
peptide: XXTHXPCIXXXC
modifications: [Isovaleric Acid]-[Glu(OMe)]-T-H-[Dpa]-P-C-I-[Lys(1PEG2_1PEG2_Dap_C18_Diacid)]-[Phe(4-COOH)]-[(D)Lys]-C-NH2
B11: Seq. No. 505 (peptide)
peptide: XXTHXPCIXXXC
modifications: [Isovaleric Acid]-[Glu(OMe)]-T-H-[Dpa]-P-C-I-[Lys(1PEG2_1PEG2_Dap_C18_Diacid)]-[bhPhe(4-Me)]-[(D)Lys]-C-NH2
B12: Seq. No. 507 (peptide)
peptide: XXTHXPCIXXXC
modifications: [Isovaleric Acid]-[Glu(OMe)]-T-H-[Dpa]-P-C-I-[Lys(1PEG2_1PEG2_Dap_C18_Diacid)]-[Achc]-[(D)Lys]-C-NH2
B13: Seq. No. 508 (peptide)
peptide: XXTHXPCIXXXC
modifications: [Isovaleric Acid]-[Glu(OMe)]-T-H-[Dpa]-P-C-I-[Lys(1PEG2_1PEG2_Dap_C18_Diacid)]-[Hph]-[(D)Lys]-C-NH2
B14: Seq. No. 517 (peptide)
peptide: XETHXPCIXXXC
modifications: [Isovaleric Acid]-E-T-H-[Dpa]-P-C-I-[Lys(PEG12_Dap_C18_Diacid)]-[bhPhe]-[(D)Lys]-C-NH2
B15: Seq. No. 519 (peptide)
peptide: XXTHXPCIXXXC
modifications: [Isovaleric Acid]-[Glu(OMe)]-T-H-[Dpa]-P-C-I-[Lys(PEG12_PEG12_Dap_C18_Diacid)]-[bhPhe]-[(D)Lys]-C-NH2

The binders below were run against T1, human ferroportin (SLC40A1) fused in … (assay: cell-based or functional assay).

Isovaleryl-ETH[Dip]PCI[dK][β3hF]K([Ahx-Palmitoyl])[dR]C[dR]-NH2 (disulfide 6-12 (inferred)) [Seq. No. 474] and Isovaleryl-ETH[Dip]PCI[dK][β3hF]K([Ahx-Palmitoyl])[dR]C-NH2 (disulfide 6-12 (inferred)) [Seq. No. 475] are within 1.5-fold of each other in “IC50: FPN internalisation” value: 54.6 nM for the first, 42.8 nM for the second.

First: B1
Second: B2
The “IC50: FPN internalisation” value of the first is 7.2-fold higher: 1760 nM for the first, 246 nM for the second.

First: Isovaleryl-ETHFPCIK(Ac)F[dK]C-NH2 (disulfide 6-11 (inferred)) [Seq. No. 478]
Second: B3
The “IC50: FPN internalisation” value of the first is 6.8-fold lower: 69.9 nM for the first, 475 nM for the second.

First: B4
Second: B5
The “IC50: FPN internalisation” value of the first is 7.2-fold higher: 107 nM for the first, 14.9 nM for the second.

Compared with B6, B7 is 3.3-fold higher in “IC50: FPN internalisation” value: 10.6 nM for the first, 35.3 nM for the second.

Compared with B8, B9 is 8.7-fold lower in “IC50: FPN internalisation” value: 124 nM for the first, 14.3 nM for the second.

Isovaleryl-[Glu(OMe)]TH[Dip]PCI[dK][β3hF]K([Ahx-Palmitoyl])[dR]C[dR]-NH2 (disulfide 6-12 (inferred)) [Seq. No. 500] and Isovaleryl-[Glu(OMe)]TH[Dip]PCI[dK][β3hF]K([Ahx-Palmitoyl])[dR]C-NH2 (disulfide 6-12 (inferred)) [Seq. No. 501] are within 1.5-fold of each other in “IC50: FPN internalisation” value: 52.5 nM for the first, 39.9 nM for the second.

Compared with Isovaleryl-[Dap]TH[Dip]PCI[dK][β3hF]K([Ahx-Palmitoyl])[dR]C-NH2 (disulfide 6-12 (inferred)) [Seq. No. 502], B10 is 3.2-fold higher in “IC50: FPN internalisation” value: 55.7 nM for the first, 180 nM for the second.

First: B11
Second: B12
The “IC50: FPN internalisation” value of the first is 1.8-fold lower: 16.7 nM for the first, 29.6 nM for the second.

B13 and Isovaleryl-[Glu(OMe)]TH[Dip]PCIK([AEEA-AEEA-Dap-C18 diacid])[hLeu][dK]C-NH2 (disulfide 6-11 (inferred)) [Seq. No. 509] are within 1.5-fold of each other in “IC50: FPN internalisation” value: 24.2 nM for the first, 20.6 nM for the second.

Compared with Isovaleryl-[Glu(OMe)]TH[Dip]PC[Cha]K([AEEA-AEEA-Dap-C18 diacid])[β3hF][dK]C-NH2 (disulfide 6-11 (inferred)) [Seq. No. 511], Isovaleryl-[Glu(OMe)]TH[Dip]PC[Ac6c]K([AEEA-AEEA-Dap-C18 diacid])[β3hF][dK]C-NH2 (disulfide 6-11 (inferred)) [Seq. No. 512] is 2.2-fold higher in “IC50: FPN internalisation” value: 16.9 nM for the first, 37.4 nM for the second.

Isovaleryl-[Glu(OMe)]TH[Dip]PC[Tle]K([AEEA-AEEA-Dap-C18 diacid])[β3hF][dK]C-NH2 (disulfide 6-11 (inferred)) [Seq. No. 514] and Isovaleryl-[Glu(OMe)]TH[Dip]PC[hLeu]K([AEEA-AEEA-Dap-C18 diacid])[β3hF][dK]C-NH2 (disulfide 6-11 (inferred)) [Seq. No. 515] are within 1.5-fold of each other in “IC50: FPN internalisation” value: 13.6 nM for the first, 12.5 nM for the second.

Compared with B14, B15 is 2.6-fold higher in “IC50: FPN internalisation” value: 9.58 nM for the first, 24.7 nM for the second.

From patent US20230295259A1 (Protagonist Therapeutics, Inc., priority 2020, published 2023)
